Measured values: patent US20220241369A1, “COMPOSITIONS AND METHODS OF MODULATING INFLAMMATION” (La Jolla Institute for Allergy and Immunology, priority 2018, published 2022)

Key:
[1] = system: OVA-induced allergic diarrhea; assay: Food allergy experiments in WT and FceRIa-/-, FcgRIIB-/-, Enpp3-/- mice; assay type: in vivo, mouse; conditions: WT and mutant mice, via FcεRI
Source text: FIGS. 10A-10C show HRF-2CA suppresses allergic diarrhea via FcεRI. WT and mutant mice were subjected to food allergy experiments as described in the FIG. 1 legend. FceRIa^−/− (n=4-5 each for group with sensitization and n=3 each for unsensitized group (Cont; no diarrhea was observed))(FIG. 10A), FcgRIIB^−/− (n=9-10 each for groups with sensitization and n=4-5 each for unsensitized groups (Cont; no diarrhea was observed); pooled data of two independent experiments) (FIG. 10B), and Enpp3^−/− (n=9-10 each for groups with sensitization and n=7 each for unsensitized groups (Cont; no diarrhea was observed); pooled data of two independent experiments) (FIG. 10C) mice along with WT mice were used. *, ***: p<0.05, p<0.001 by Student's t-test.
BALB/c mice were bred in the animal facility of RIKEN IMS. Frozen zygotes of FceRIa^−/− mice were donated by Takashi Saito (RIKEN IMS) and bred at RIKEN IMS. FcgRIIB^−/− mice provided by Toshiyuki Takai (Tohoku University) were also bred at RIKEN IMS. Food allergy experiments with Enpp3^−/− mice were conducted at Osaka University. All genetically modified mice were backcrossed to BALB/c background for more than ten generations.
Mice were i.p. sensitized with OVA (50 μg/mouse) plus alum on days 0 and 14. […] The development of diarrhea was monitored for 90 min after OVA challenge. […]

[2] = system: OVA-induced food allergy (allergic diarrhea); assay: IgE-mediated experimental food allergy, i.g. pretreatment with HRF inhibitor before each OVA challenge; assay type: in vivo, mouse
Protocol: FIGS. 1A-1I show GST-N19 inhibits the development of diarrhea and intestinal mastocytosis in murine food allergy. Mice were i.p. sensitized with OVA ([…]) plus alum on days 0 and 14. From day 28, mice were i.g. challenged with OVA (50 mg) three times a week. Sensitized mice were either non-pretreated (−) or i.g. pretreated with 100 μg of GST or GST-N19 (N19). (FIG. 1A) Procedure scheme. (FIG. 1B) The development of diarrhea was monitored for 90 min after each OVA challenge. (n=5 for non-sensitized group, n=3 for inhibitor non-pretreated group, n=4 for GST group, n=6 for N19 group, data are representative of at least 3 independent experiments) Log-rank test: p=0.028 (GST vs. GST-N19), p=0.036 (control vs. GST-N19). […] (FIG. 1C-FIG. 1E) Total IgE, IgG1, HRF, and HRF-reactive IgE and IgG in sera were measured by ELISA. (FIG. 1F) Serum mMCP-1 was also measured by ELISA. (FIG. 1G) Sections of jejunum were stained with chloroacetate esterase to identify mast cells. Sections indicated by rectangles are enlarged in lower rows. Bar=100 μm in large pictures and 50 μm in insets. (FIG. 1H) Flow cytometry was performed to enumerate MMC9s (Lin^−c-Kit^+ST2^+IL-17RB^−Integrin β7^lo) in jejunum. (n=14 for non-sensitized group, n=15 for inhibitor non-pretreated group, n=9 for GST group, n=9 for GST-N19 group, pooled data of 3 independent experiments) (FIG. 1I) Cytokine mRNAs in jejunum were quantified by qRT-PCR. *, **: p<0.05, p<0.01 by ANOVA with Tukey's multiple comparison.
Mice were i.p. sensitized with OVA (50 μg/mouse) plus alum on days 0 and 14. From day 28, mice were i.g. challenged with OVA (25 or 50 mg) or PBS (control) three times a week. Before each challenge, mice were starved for 3 h, then i.g. pretreated with GST, GST-N19 (100 μg/mouse), synthetic N19 peptide, or HRF-2CA. The development of diarrhea was monitored for 90 min after OVA challenge. Diarrhea severity (30) was based on states of stool: solid (score 0), funicular (score 1), slurry (score 2), and watery (score 3).
For histologic analysis, jejunal tissue was fixed in 10% formalin. Mast cells in jejunal sections were detected by chloroacetate esterase staining. IgE, IgG, IgG1, IgG2a, mMCP-1, HRF, HRF-reactive IgE, and HRF-reactive IgG 24 h after the last OVA challenge were measured by ELISA (see Supplemental Information). Cytokine mRNAs in jejunum were quantified by qRT-PCR.
Twenty-four hours after the last OVA challenge, mice were sacrificed and small intestines (0.5-15 cm from stomach) were collected. The intestinal tissues were opened longitudinally and washed with HBSS. The washed tissues were incubated with 5 mM EDTA-HBSS for 30 min at 4° C., transferred to 30 ml HBSS in 50 ml tubes, and vigorously shaken to remove intestinal epithelial cells. The tissues were then washed with 10 ml of 10% FCS RPMI medium. Tissues were cut into tiny pieces and incubated with 2.4 mg/ml Collagenase D and 0.2 mg/ml DNase for 30 min at 37° C. Then cells were washed, resuspended in 44% Percoll solution, and slowly loaded on the top of 67% Percoll solution. The cells were centrifuged (1800 rpm, 20 min) and lymphocyte fractions were collected and used for detection of MMC9s (Lin^−c-Kit^+ST2^+IL-17RB^−Integrin β7^lo).
The cells were first incubated with 2.4G2 for 15 min at 4° C. and further incubated with Abs (PE-anti-07 integrin mAb (clone FIB504), PerCP/Cy5.5-anti-CD4 mAb (clone RM4-5), PerCP/Cy5.5-anti-CD8 mAb (clone 53-6.7), PerCP/Cy5.5-anti-CD11b mAb (clone M1/70), PerCP/Cy5.5-anti-CD11c mAb (clone N418), PerCP/Cy5.5-anti-B220 mAb (RA3-6B2), PerCP/Cy5.5-anti-Ly-6G/Ly-6C mAb (clone RB6-8C5), PerCP/Cy5.5-anti-CD335 mAb (clone 29A1.4), AlexaFluor647-anti-IL-17RB (clone 9B10), APC/Cy7-anti-CD117 (clone 2B8), Biotin-anti-ST2 (clone DIH9)) (Biolegend) for 30 min at 4° C. After washed, the cells were incubated with SA-BV421 (Biolegend) for 30 min at 4° C. MMC9 population was identified using FACS Canto. Data were analyzed using FlowJo software.

[3] = biological target: IgE on mucosal (IgE+ mMCP-1+, c-Kit+) mast cells of the small intestine of OVA-sensitized/OVA-challenged mice (mouse); assay: confocal microscopy of jejunum, anti-His tag staining (data not shown)

B1: HRF-2CA-His6, a monomeric mutant of mouse HRF (protein)
chain: MIIYRDLISHDELFSDIYKIREIADGLALEVEGKMVSRTEGAIDDSLIGGNASAEGPEGEGTESTVVTGVDIVMNHHLQETSFTKEAYKKYIKDYMKSLKGKLEEQKPERVKPFMTGAAEQIKHILANFNNYQFFIGENMNPDGMVALLDYREDGVTPFMIFFKDGLEMEKAHHHHHH
[1]
  allergic diarrhea: suppresses
[2]; OVA-sensitized mice after OVA challenges, i.g. pretreatment
  HRF-reactive IgE levels: did not affect
[2]; after eleven OVA challenges
  reduction of HRF-reactive IgG levels: not affected
[2]; i.g. pretreatment before each OVA challenge, chloroacetate esterase staining
  number of mucosal mast cells in jejunum (intestinal mastocytosis): inhibits
[2]; i.g. pretreatment, serum ELISA
  levels of total IgE, IgG1, IgG2a or HRF-reactive IgE and IgG: failed to affect
[2]; sensitized mice pretreated i.g. with 100 μg before each OVA challenge
  diarrhea occurrence / incidence: inhibits
[3]
  percent of IgE+ mMCP-1+ mast cells targeted: 64%
